Measurements from patent EP4678648A1.

Target: FcRn (Neonatal Fc Receptor)
Assay: SPR (BIAcore T200), FcRn amine-coupled on CM5 chip, antibody 1.96-31.25 nM flowed, pH 6.0 or 7.4 not given, 1:1 fit; Table 4 taken as the FcRn table

A Kd of 572 pM was found for Trastuzumab (antibody) in this work.
